The stoichiometry N is the number of molecules, sites or subunits per partner or assembly.

Assay [1] addresses PelB of P. aeruginosa PAO1, C-terminal fragment (residues 762-1193) with three periplasmic TPR repeats and the transmembrane β-barrel (Pseudomonas aeruginosa PAO1) (UniProt Q9HZE5). In words: cryo-EM structure; PelBC complex in MSP1D1 nanodiscs (POPC:POPG 70:30), 50 mM HEPES pH 7.4, 150 mM NaCl; no symmetry imposed; 2.52 Å.
Assay [2] deals with PelC lipoprotein of P. aeruginosa PAO1 (Pseudomonas aeruginosa PAO1). The description is as above.

In assay [1], “PelC lipoprotein of P. aeruginosa PAO1 (natural protein)” displayed a stoichiometry N (PelC per PelB) of 12. In addition, the stoichiometry N in assay [2] was determined as 12 subunits.

The values are drawn from PMC12141448.
